Data from patent US20160272683A1 (Novo Nordisk, published 2016).
Numbered stars: 1 amine (or outer) side, 2 acyl side, 3 side chain; on linkers, the order of the positions; unused ones are H or OH. Side chains are listed from the residue outwards. Ends that are not written are not given here. * marks the point of attachment. C20 diacid = O=C(O)CCCCCCCCCCCCCCCCCCC(=O)*; C18 diacid = O=C(O)CCCCCCCCCCCCCCCCC(=O)*; γGlu = O=C(O)[C@H](CCC(=O)[*:2])N[*:1]

Assays:
[1] = biological target: T1, human calcitonin receptor on BHK570/CRE-luc cells (human, UniProt P30988 25-474); assay: cell-based or functional assay
T1 sequence (looked up): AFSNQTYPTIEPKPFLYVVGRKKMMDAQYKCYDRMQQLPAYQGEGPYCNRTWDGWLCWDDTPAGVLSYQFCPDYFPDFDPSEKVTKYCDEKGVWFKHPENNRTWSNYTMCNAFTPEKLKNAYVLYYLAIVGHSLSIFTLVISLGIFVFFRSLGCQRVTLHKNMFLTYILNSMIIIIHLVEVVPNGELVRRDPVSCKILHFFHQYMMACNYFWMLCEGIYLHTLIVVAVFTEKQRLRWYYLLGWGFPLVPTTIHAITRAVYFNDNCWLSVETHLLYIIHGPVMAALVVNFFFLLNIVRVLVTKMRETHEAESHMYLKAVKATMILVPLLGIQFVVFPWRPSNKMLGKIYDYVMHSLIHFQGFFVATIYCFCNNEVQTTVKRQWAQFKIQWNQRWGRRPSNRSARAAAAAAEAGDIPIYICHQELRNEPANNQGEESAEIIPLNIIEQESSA

[2] = biological target: T2, human amylin 3(a) receptor (human calcitonin receptor co-expressed with RAMP-3) on BHK570/CRE-luc cells (human, UniProt P30988 25-474; O60896 24-148); assay: cell-based or functional assay
T2 sequence (looked up) 1: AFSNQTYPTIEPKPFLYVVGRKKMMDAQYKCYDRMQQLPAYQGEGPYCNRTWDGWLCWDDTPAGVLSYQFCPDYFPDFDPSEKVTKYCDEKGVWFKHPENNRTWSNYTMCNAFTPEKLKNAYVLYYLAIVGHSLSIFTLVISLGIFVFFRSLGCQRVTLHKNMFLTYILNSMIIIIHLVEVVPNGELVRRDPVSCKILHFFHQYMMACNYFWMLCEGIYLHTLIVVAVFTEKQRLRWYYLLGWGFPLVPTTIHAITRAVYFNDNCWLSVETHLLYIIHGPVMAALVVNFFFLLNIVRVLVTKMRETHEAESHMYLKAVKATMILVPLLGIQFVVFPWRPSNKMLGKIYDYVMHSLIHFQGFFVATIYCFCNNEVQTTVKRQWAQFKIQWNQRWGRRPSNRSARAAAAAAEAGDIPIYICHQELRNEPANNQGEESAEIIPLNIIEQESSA
T2 sequence (looked up) 2: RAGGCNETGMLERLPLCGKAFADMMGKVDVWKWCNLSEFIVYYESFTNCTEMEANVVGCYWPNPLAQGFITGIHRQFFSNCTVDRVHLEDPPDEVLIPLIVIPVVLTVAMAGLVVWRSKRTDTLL

Binder | hCTR funct. EC50 (pM), tested with HSA [1] [pM] | hAmylin-R funct. EC50 (pM), tested with HSA [2] [pM]
{C20 diacid-γGlu}-ASGLSTAALGRLSQELHELQTYPRTETGSQTY-NH2 (SMILES CC(C)C[C@H](NC(=O)CNC(=O)[C@H](CO)NC(=O)[C@H](C)NC(=O)CC[C@H](NC(=O)CCCCCCCCCCCCCCCCCCC(=O)O)C(=O)O)C(=O)N[C@@H](CO)C(=O)N[C@H](C(=O)N[C@@H](C)C(=O)N[C@@H](C)C(=O)N[C@@H](CC(C)C)C(=O)NCC(=O)N[C@@H](CCCNC(=N)N)C(=O)N[C@@H](CC(C)C)C(=O)N[C@@H](CO)C(=O)N[C@@H](CCC(N)=O)C(=O)N[C@@H](CCC(=O)O)C(=O)N[C@@H](CC(C)C)C(=O)N[C@@H](Cc1c[nH]cn1)C(=O)N[C@@H](CCC(=O)O)C(=O)N[C@@H](CC(C)C)C(=O)N[C@@H](CCC(N)=O)C(=O)N[C@H](C(=O)N[C@@H](Cc1ccc(O)cc1)C(=O)N1CCC[C@H]1C(=O)N[C@@H](CCCNC(=N)N)C(=O)N[C@H](C(=O)N[C@@H](CCC(=O)O)C(=O)N[C@H](C(=O)NCC(=O)N[C@@H](CO)C(=O)N[C@@H](CCC(N)=O)C(=O)N[C@H](C(=O)N[C@@H](Cc1ccc(O)cc1)C(N)=O)[C@@H](C)O)[C@@H](C)O)[C@@H](C)O)[C@@H](C)O)[C@@H](C)O) [[N-terminal(C20 diacid-gGlu), des1, 4G, 15Q, 21Q, 23Y, 30S, 31Q, 32T, 33Y]mimylin] | 108 | 158
{C20 diacid}-ASGLSTAALGRLSQELHELQTYPRTETGSGTY-NH2 (SMILES CC(C)C[C@H](NC(=O)CNC(=O)[C@H](CO)NC(=O)[C@H](C)NC(=O)CCCCCCCCCCCCCCCCCCC(=O)O)C(=O)N[C@@H](CO)C(=O)N[C@H](C(=O)N[C@@H](C)C(=O)N[C@@H](C)C(=O)N[C@@H](CC(C)C)C(=O)NCC(=O)N[C@@H](CCCNC(=N)N)C(=O)N[C@@H](CC(C)C)C(=O)N[C@@H](CO)C(=O)N[C@@H](CCC(N)=O)C(=O)N[C@@H](CCC(=O)O)C(=O)N[C@@H](CC(C)C)C(=O)N[C@@H](Cc1c[nH]cn1)C(=O)N[C@@H](CCC(=O)O)C(=O)N[C@@H](CC(C)C)C(=O)N[C@@H](CCC(N)=O)C(=O)N[C@H](C(=O)N[C@@H](Cc1ccc(O)cc1)C(=O)N1CCC[C@H]1C(=O)N[C@@H](CCCNC(=N)N)C(=O)N[C@H](C(=O)N[C@@H](CCC(=O)O)C(=O)N[C@H](C(=O)NCC(=O)N[C@@H](CO)C(=O)NCC(=O)N[C@H](C(=O)N[C@@H](Cc1ccc(O)cc1)C(N)=O)[C@@H](C)O)[C@@H](C)O)[C@@H](C)O)[C@@H](C)O)[C@@H](C)O) [[N-terminal(C20 diacid), des1, 4G, 15Q, 21Q, 23Y, 30S, 31G, 32T, 33Y]mimylin] | 49 | 52
ASGLSTAALGRLSQELHELQTYPRTETGSK([γGlu-C20 diacid])TY-NH2 (N-terminus assumed; SMILES CC(C)C[C@H](NC(=O)CNC(=O)[C@H](CO)NC(=O)[C@H](C)N)C(=O)N[C@@H](CO)C(=O)N[C@H](C(=O)N[C@@H](C)C(=O)N[C@@H](C)C(=O)N[C@@H](CC(C)C)C(=O)NCC(=O)N[C@@H](CCCNC(=N)N)C(=O)N[C@@H](CC(C)C)C(=O)N[C@@H](CO)C(=O)N[C@@H](CCC(N)=O)C(=O)N[C@@H](CCC(=O)O)C(=O)N[C@@H](CC(C)C)C(=O)N[C@@H](Cc1c[nH]cn1)C(=O)N[C@@H](CCC(=O)O)C(=O)N[C@@H](CC(C)C)C(=O)N[C@@H](CCC(N)=O)C(=O)N[C@H](C(=O)N[C@@H](Cc1ccc(O)cc1)C(=O)N1CCC[C@H]1C(=O)N[C@@H](CCCNC(=N)N)C(=O)N[C@H](C(=O)N[C@@H](CCC(=O)O)C(=O)N[C@H](C(=O)NCC(=O)N[C@@H](CO)C(=O)N[C@@H](CCCCNC(=O)CC[C@H](NC(=O)CCCCCCCCCCCCCCCCCCC(=O)O)C(=O)O)C(=O)N[C@H](C(=O)N[C@@H](Cc1ccc(O)cc1)C(N)=O)[C@@H](C)O)[C@@H](C)O)[C@@H](C)O)[C@@H](C)O)[C@@H](C)O) [[des1, 4G, 15Q, 21Q, 23Y, 30S, 31K(C20 diacid-gGlu), 32T, 33Y]mimylin] | 113 | 335
{C20 diacid-γGlu}-ASGLSTAALGRLSQELHELETYPRTETGSGTY-NH2 (SMILES CC(C)C[C@H](NC(=O)CNC(=O)[C@H](CO)NC(=O)[C@H](C)NC(=O)CC[C@H](NC(=O)CCCCCCCCCCCCCCCCCCC(=O)O)C(=O)O)C(=O)N[C@@H](CO)C(=O)N[C@H](C(=O)N[C@@H](C)C(=O)N[C@@H](C)C(=O)N[C@@H](CC(C)C)C(=O)NCC(=O)N[C@@H](CCCNC(=N)N)C(=O)N[C@@H](CC(C)C)C(=O)N[C@@H](CO)C(=O)N[C@@H](CCC(N)=O)C(=O)N[C@@H](CCC(=O)O)C(=O)N[C@@H](CC(C)C)C(=O)N[C@@H](Cc1c[nH]cn1)C(=O)N[C@@H](CCC(=O)O)C(=O)N[C@@H](CC(C)C)C(=O)N[C@@H](CCC(=O)O)C(=O)N[C@H](C(=O)N[C@@H](Cc1ccc(O)cc1)C(=O)N1CCC[C@H]1C(=O)N[C@@H](CCCNC(=N)N)C(=O)N[C@H](C(=O)N[C@@H](CCC(=O)O)C(=O)N[C@H](C(=O)NCC(=O)N[C@@H](CO)C(=O)NCC(=O)N[C@H](C(=O)N[C@@H](Cc1ccc(O)cc1)C(N)=O)[C@@H](C)O)[C@@H](C)O)[C@@H](C)O)[C@@H](C)O)[C@@H](C)O) [[N-terminal(C20 diacid-gGlu), des1, 4G, 15Q, 21E, 23Y, 30S, 31G, 32T, 33Y]mimylin] | 68 | 150
{C18 diacid-γGlu}-ASGLSTAALGRLSQELHELQTYPRTETGSGTY-NH2 (SMILES CC(C)C[C@H](NC(=O)CNC(=O)[C@H](CO)NC(=O)[C@H](C)NC(=O)CC[C@H](NC(=O)CCCCCCCCCCCCCCCCC(=O)O)C(=O)O)C(=O)N[C@@H](CO)C(=O)N[C@H](C(=O)N[C@@H](C)C(=O)N[C@@H](C)C(=O)N[C@@H](CC(C)C)C(=O)NCC(=O)N[C@@H](CCCNC(=N)N)C(=O)N[C@@H](CC(C)C)C(=O)N[C@@H](CO)C(=O)N[C@@H](CCC(N)=O)C(=O)N[C@@H](CCC(=O)O)C(=O)N[C@@H](CC(C)C)C(=O)N[C@@H](Cc1c[nH]cn1)C(=O)N[C@@H](CCC(=O)O)C(=O)N[C@@H](CC(C)C)C(=O)N[C@@H](CCC(N)=O)C(=O)N[C@H](C(=O)N[C@@H](Cc1ccc(O)cc1)C(=O)N1CCC[C@H]1C(=O)N[C@@H](CCCNC(=N)N)C(=O)N[C@H](C(=O)N[C@@H](CCC(=O)O)C(=O)N[C@H](C(=O)NCC(=O)N[C@@H](CO)C(=O)NCC(=O)N[C@H](C(=O)N[C@@H](Cc1ccc(O)cc1)C(N)=O)[C@@H](C)O)[C@@H](C)O)[C@@H](C)O)[C@@H](C)O)[C@@H](C)O) [[N-terminal(C18 diacid-gGlu), des1, 4G, 15Q, 21Q, 23Y, 30S, 31G, 32T, 33Y]mimylin] | 53 | 70
{C20 diacid-γGlu}-ASGLSTAALGRLSTELHELETYPRTETGSGTY-NH2 (SMILES CC(C)C[C@H](NC(=O)CNC(=O)[C@H](CO)NC(=O)[C@H](C)NC(=O)CC[C@H](NC(=O)CCCCCCCCCCCCCCCCCCC(=O)O)C(=O)O)C(=O)N[C@@H](CO)C(=O)N[C@H](C(=O)N[C@@H](C)C(=O)N[C@@H](C)C(=O)N[C@@H](CC(C)C)C(=O)NCC(=O)N[C@@H](CCCNC(=N)N)C(=O)N[C@@H](CC(C)C)C(=O)N[C@@H](CO)C(=O)N[C@H](C(=O)N[C@@H](CCC(=O)O)C(=O)N[C@@H](CC(C)C)C(=O)N[C@@H](Cc1c[nH]cn1)C(=O)N[C@@H](CCC(=O)O)C(=O)N[C@@H](CC(C)C)C(=O)N[C@@H](CCC(=O)O)C(=O)N[C@H](C(=O)N[C@@H](Cc1ccc(O)cc1)C(=O)N1CCC[C@H]1C(=O)N[C@@H](CCCNC(=N)N)C(=O)N[C@H](C(=O)N[C@@H](CCC(=O)O)C(=O)N[C@H](C(=O)NCC(=O)N[C@@H](CO)C(=O)NCC(=O)N[C@H](C(=O)N[C@@H](Cc1ccc(O)cc1)C(N)=O)[C@@H](C)O)[C@@H](C)O)[C@@H](C)O)[C@@H](C)O)[C@@H](C)O)[C@@H](C)O) [[N-terminal(C20 diacid-gGlu), des1, 4G, 15T, 21E, 23Y, 30S, 31G, 32T, 33Y]mimylin] | 67 | 291
{C20 diacid-γGlu}-ASGLSTAALGRLSEELHELQTYPRTETGSGTY-NH2 (SMILES CC(C)C[C@H](NC(=O)CNC(=O)[C@H](CO)NC(=O)[C@H](C)NC(=O)CC[C@H](NC(=O)CCCCCCCCCCCCCCCCCCC(=O)O)C(=O)O)C(=O)N[C@@H](CO)C(=O)N[C@H](C(=O)N[C@@H](C)C(=O)N[C@@H](C)C(=O)N[C@@H](CC(C)C)C(=O)NCC(=O)N[C@@H](CCCNC(=N)N)C(=O)N[C@@H](CC(C)C)C(=O)N[C@@H](CO)C(=O)N[C@@H](CCC(=O)O)C(=O)N[C@@H](CCC(=O)O)C(=O)N[C@@H](CC(C)C)C(=O)N[C@@H](Cc1c[nH]cn1)C(=O)N[C@@H](CCC(=O)O)C(=O)N[C@@H](CC(C)C)C(=O)N[C@@H](CCC(N)=O)C(=O)N[C@H](C(=O)N[C@@H](Cc1ccc(O)cc1)C(=O)N1CCC[C@H]1C(=O)N[C@@H](CCCNC(=N)N)C(=O)N[C@H](C(=O)N[C@@H](CCC(=O)O)C(=O)N[C@H](C(=O)NCC(=O)N[C@@H](CO)C(=O)NCC(=O)N[C@H](C(=O)N[C@@H](Cc1ccc(O)cc1)C(N)=O)[C@@H](C)O)[C@@H](C)O)[C@@H](C)O)[C@@H](C)O)[C@@H](C)O) [[N-terminal(C20 diacid-gGlu), des1, 4G, 15E, 21Q, 23Y, 30S, 31G, 32T, 33Y]mimylin] | 57 | 159
